Literature values, collected in article PMC4372107.
Values joined by “and” are separate entries in the source; they are usually repeats but may differ in a detail not shown here. Equal values may be shown once.

Molecular target: U2AF65 RRM123 (Homo sapiens) (UniProt P26368)
Assay: ITC

Sequence of UniProt P26368 (P26368 148-475, one chain of several): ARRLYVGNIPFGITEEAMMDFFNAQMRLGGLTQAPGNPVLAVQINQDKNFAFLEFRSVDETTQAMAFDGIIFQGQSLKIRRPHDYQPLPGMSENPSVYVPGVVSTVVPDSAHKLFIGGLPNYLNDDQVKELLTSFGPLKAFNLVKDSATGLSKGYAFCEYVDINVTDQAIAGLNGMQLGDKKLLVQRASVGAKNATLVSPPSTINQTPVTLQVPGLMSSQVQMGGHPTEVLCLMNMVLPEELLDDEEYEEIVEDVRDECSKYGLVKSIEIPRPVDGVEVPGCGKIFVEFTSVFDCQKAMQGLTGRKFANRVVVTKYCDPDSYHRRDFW

Q: Which Kd does the source give for SF1 (from UniProt Q15637) here?
A: 114 nM and 96 nM
